Source: patent publication US10562957B2, “Albumin-purification method comprising a nanofiltration step, solution, and composition for therapeutic use containing the same” (LABORATOIRE FRANCAIS DU FRACTIONNEMENT ET DES …, priority 2004, dated 2020)

Target: von Willebrand factor (vWf) (Homo sapiens, UniProt P04275)
Assay: Stabilisation of vWf by nanofiltered albumin: freeze-drying and dry heating at 80° C. for 72 hours
Format: physicochemical
Details: preliminary tests: vWf solution with glycine and arginine, no albumin, dry heating 80° C.
Protocol: The power of the nanofiltered albumin to stabilise von Willebrand factor (vWf) was assessed using dry heating tests of vWf at 80° C. for 72 hours.
These solutions are then submitted to freeze-drying (45±3 hours) and dry heating as defined above. After heating, the addition of purified water for injection (PWI) to the dry residues reconstitutes solutions A11-A12. The following parameters are analysed: appearance of the solution, dissolution time, activity of vWf and multimeric profile, as measured by electrophoresis.

With “vWf: von Willebrand factor solution stabilised with glycine and arginine, without albumin” the “activity of vWf (vWf:Ag) compared to the non-heated vWf” value was greater than 82% and the multimeric profile was “not maintained”.
